Laboratory results published in the supplement of paper PMC9170038.

Test system: MS2 coat protein
Assay: apparent KD of MS2 coat protein; designed switch direction (-1 OFF switch, 1 ON switch): -1; higher = weaker reporter binding
Method in brief: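 For each design, the apparent KD is the median over clusters of curves fitted to normalised cluster fluorescence. Clusters held RNA switches with common flanks, transcribed on Illumina chips by stalled E. coli RNA polymerase. These were titrated with SNAP-549-labelled MS2 coat protein, doubling from 0.7 or 1.5 nM to 3 µM, without input, with 200 uM small-molecule ligand, or with an oligonucleotide input.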

[1] = input ligand: microRNA oligo, concentration not stated
[2] = Eterna round: R95, input ligand: FMN 200 uM
[3] = Eterna round: R95, input ligand: microRNA oligo, concentration not stated
[4] = Eterna round: R95, input ligand: none

In the case of “UGCGAAGAGUGAGGAUAUGUGCGACAAAGUUGCACAGAAGGCACAUGAGGAUCACCCAUGUAAGCUAGGUCGAAAGACCUAGCG [Omei Exc(NG)1 Av5] (Eterna round: R96, puzzle: Exclusion NG 1)”, the “apparent KD of MS2 coat protein” value (input ligand: FMN 200 uM) is reported as 106 nM, the “apparent KD of MS2 coat protein” value [1] is reported as 40.6 nM and the “apparent KD of MS2 coat protein” value (input ligand: none) is reported as 43.4 nM.

“UGCUACAUGAGGAUCACCCAUGUAAUGUGGGAAUCGUUAGGACAGGAUAUGAUUGUAUUGUUUUUUCAGAAGGGUCAUUACUUU [JR_ExcNG3_Sub012] (Eterna round: R96, puzzle: Exclusion NG 3)” was tested, and the “apparent KD of MS2 coat protein” value [1] was 212 nM.

In the case of “UGCUACGGAGGAUAUACAUGAGGAUCACCCAUGUGUGAGAUUUGGCCGAGAGGCCAGUGUAGAAGGCCGUAGCU [jl-ex3-4.19 jl mod] (Eterna round: R97, puzzle: Exclusion 3)”, the “apparent KD of MS2 coat protein” value (input ligand: FMN 200 uM) is reported as 615 nM and the “apparent KD of MS2 coat protein” value (input ligand: none) is reported as 193 nM.

With “UGGCUUUGAGGAUAUACAUUGAAUAAGAUUCAUGUAAAACUACAUGAGGAUCACCCAUGUAGAAGGCAAGGCCU [Mat - Exclusion 2 - JL Mod - D74] (Eterna round: R97, puzzle: Exclusion 2)” the “apparent KD of MS2 coat protein” value (input ligand: FMN 200 uM) was 26.9 nM and the “apparent KD of MS2 coat protein” value (input ligand: none) was 16 nM.

With “UGGGUUCUCCAUAGAAGUAACAUGAGGAUCACCCAUGUAGGGCAAGUUUUUUGCUCGUCAUAGGUUGUGGGUUUGGA [JR_SV3TOV1_Sub018] (puzzle: Sensor v3, turn-off variant 1)” the “apparent KD of MS2 coat protein” value [2] was 578 nM, the “apparent KD of MS2 coat protein” value [3] was 491 nM and the “apparent KD of MS2 coat protein” value [4] was 660 nM.

With “UGGGUUCUCCAUGGAAGUAACAUGAGGAUCACCCAUGUAGGGCAAGUUUUUUGCUCGUCAUAGGCCGUGGGUUUGGA [JR_SV3TOV1_Sub019] (puzzle: Sensor v3, turn-off variant 1)” the “apparent KD of MS2 coat protein” value [2] was 252 nM, the “apparent KD of MS2 coat protein” value [3] was 248 nM and the “apparent KD of MS2 coat protein” value [4] was 305 nM.

“UGGUAACAUGAGGAUCACCCAUGUCAGGAUAUCAGUAAGAAUAGAUGAGAGUAGAAGAUGAGAAGGGACUAUAU [Excluse me! 7 - Jieux - Exclusion 1] (puzzle: Exclusion 1)” was tested, and the “apparent KD of MS2 coat protein” value [3] was 29.1 nM.

For “UGGUGGAAGCAGGAUAUGCUUGUUUUAUUGAUUGCAGAAGGGCUAACAUGAGGAUCACCCAUGUAAGAGGUGUU [JR_E6_Sub055] (puzzle: Exclusion 6)”, the “apparent KD of MS2 coat protein” value [3] was 303 nM.

In the case of “UGUACGAUGCGUGCUGACAUGCGUCGUGCAGCAGGUGUUACAUGAGGAUCACCCAUGUCCUCAUUUGCUCGUCUUAU [SL-sv3-2.08 JL mod] (puzzle: Sensor v3, turn-off variant 2)”, the “apparent KD of MS2 coat protein” value [2] is reported as 250 nM, the “apparent KD of MS2 coat protein” value [3] is reported as 250 nM and the “apparent KD of MS2 coat protein” value [4] is reported as 337 nM.

For “UGUACUAACACGGAAGUGUUAGUACUAUAAGCUUGUGUUACAUGAGGAUCACCCAUGUCCUCAUAAGCUCGUCUUAA [Mat - Sensor v3 - Turn-off var 2 - D73] (puzzle: Sensor v3, turn-off variant 2)”, the “apparent KD of MS2 coat protein” value [2] was 43.3 nM, the “apparent KD of MS2 coat protein” value [3] was 198 nM and the “apparent KD of MS2 coat protein” value [4] was 41 nM.

“UGUACUAACACGGAAGUGUUAGUACUAUAAGCUUGUGUUACAUGAGGAUCACCCAUGUCCUCAUAAGCUCGUCUUAU [Mat - Sensor v3 - Turn-off var 2 - D74] (puzzle: Sensor v3, turn-off variant 2)” was tested, and the “apparent KD of MS2 coat protein” value [2] was 157 nM, the “apparent KD of MS2 coat protein” value [3] was 53.6 nM and the “apparent KD of MS2 coat protein” value [4] was 172 nM.

In the case of “UGUAUACAUGAGGAUCACCCAUGUAAGGAUAUGCUUUAUUAUUAUUAUUAUUAUUGUUGCAGAAGGUACAUUAU [LRO-Excl01-07] (Eterna round: R97, puzzle: Exclusion 1)”, the “apparent KD of MS2 coat protein” value (input ligand: FMN 200 uM) is reported as 26.4 nM and the “apparent KD of MS2 coat protein” value (input ligand: none) is reported as 25.6 nM.
